Data set [1] has as its target T1, SIP1 full length in cells (Mus musculus) (UniProt Q9R0G7).
T1 sequence: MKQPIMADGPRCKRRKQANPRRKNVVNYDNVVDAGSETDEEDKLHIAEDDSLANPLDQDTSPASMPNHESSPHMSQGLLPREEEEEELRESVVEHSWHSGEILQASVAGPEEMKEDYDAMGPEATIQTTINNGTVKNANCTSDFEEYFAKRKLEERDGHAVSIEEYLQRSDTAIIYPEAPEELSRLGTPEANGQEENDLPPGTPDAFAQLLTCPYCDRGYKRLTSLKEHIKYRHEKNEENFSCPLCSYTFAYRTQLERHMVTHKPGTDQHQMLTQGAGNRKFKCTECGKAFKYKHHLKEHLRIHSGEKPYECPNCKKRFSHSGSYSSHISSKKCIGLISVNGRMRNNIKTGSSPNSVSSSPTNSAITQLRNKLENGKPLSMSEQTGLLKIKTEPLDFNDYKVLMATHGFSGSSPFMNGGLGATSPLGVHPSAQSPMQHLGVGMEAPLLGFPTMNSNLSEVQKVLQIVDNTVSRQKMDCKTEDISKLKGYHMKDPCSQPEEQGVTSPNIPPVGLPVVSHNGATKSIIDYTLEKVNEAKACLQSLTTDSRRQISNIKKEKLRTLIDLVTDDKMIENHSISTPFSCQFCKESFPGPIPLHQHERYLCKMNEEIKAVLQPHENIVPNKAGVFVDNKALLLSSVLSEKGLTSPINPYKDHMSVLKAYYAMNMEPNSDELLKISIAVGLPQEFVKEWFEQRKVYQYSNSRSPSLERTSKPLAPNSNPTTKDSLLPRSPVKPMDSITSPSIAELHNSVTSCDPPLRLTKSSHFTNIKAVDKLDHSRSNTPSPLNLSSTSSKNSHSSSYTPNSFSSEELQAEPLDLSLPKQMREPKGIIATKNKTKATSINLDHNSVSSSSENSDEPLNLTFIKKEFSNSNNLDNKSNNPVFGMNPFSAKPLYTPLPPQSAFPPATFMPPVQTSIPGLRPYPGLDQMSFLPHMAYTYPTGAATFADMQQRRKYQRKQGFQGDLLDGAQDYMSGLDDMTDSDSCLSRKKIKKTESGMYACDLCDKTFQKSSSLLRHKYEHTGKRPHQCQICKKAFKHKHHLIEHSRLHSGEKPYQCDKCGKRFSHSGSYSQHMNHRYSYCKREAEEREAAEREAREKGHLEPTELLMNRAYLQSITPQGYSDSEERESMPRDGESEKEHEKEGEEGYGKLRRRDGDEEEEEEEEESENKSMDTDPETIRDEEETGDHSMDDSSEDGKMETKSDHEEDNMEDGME
Kind of data set: cell_activity. As to conditions: luciferase reporter in NMe, MDCK, MCF7/AZ. Background: Reporter assays use an easily measured gene product as a stand-in for the process of interest.

The target in data set [2] is T2, SIP1 full length (SIP1FS) (Mus musculus, UniProt Q9R0G7 Q9R0G7:1-1215).
T2 sequence: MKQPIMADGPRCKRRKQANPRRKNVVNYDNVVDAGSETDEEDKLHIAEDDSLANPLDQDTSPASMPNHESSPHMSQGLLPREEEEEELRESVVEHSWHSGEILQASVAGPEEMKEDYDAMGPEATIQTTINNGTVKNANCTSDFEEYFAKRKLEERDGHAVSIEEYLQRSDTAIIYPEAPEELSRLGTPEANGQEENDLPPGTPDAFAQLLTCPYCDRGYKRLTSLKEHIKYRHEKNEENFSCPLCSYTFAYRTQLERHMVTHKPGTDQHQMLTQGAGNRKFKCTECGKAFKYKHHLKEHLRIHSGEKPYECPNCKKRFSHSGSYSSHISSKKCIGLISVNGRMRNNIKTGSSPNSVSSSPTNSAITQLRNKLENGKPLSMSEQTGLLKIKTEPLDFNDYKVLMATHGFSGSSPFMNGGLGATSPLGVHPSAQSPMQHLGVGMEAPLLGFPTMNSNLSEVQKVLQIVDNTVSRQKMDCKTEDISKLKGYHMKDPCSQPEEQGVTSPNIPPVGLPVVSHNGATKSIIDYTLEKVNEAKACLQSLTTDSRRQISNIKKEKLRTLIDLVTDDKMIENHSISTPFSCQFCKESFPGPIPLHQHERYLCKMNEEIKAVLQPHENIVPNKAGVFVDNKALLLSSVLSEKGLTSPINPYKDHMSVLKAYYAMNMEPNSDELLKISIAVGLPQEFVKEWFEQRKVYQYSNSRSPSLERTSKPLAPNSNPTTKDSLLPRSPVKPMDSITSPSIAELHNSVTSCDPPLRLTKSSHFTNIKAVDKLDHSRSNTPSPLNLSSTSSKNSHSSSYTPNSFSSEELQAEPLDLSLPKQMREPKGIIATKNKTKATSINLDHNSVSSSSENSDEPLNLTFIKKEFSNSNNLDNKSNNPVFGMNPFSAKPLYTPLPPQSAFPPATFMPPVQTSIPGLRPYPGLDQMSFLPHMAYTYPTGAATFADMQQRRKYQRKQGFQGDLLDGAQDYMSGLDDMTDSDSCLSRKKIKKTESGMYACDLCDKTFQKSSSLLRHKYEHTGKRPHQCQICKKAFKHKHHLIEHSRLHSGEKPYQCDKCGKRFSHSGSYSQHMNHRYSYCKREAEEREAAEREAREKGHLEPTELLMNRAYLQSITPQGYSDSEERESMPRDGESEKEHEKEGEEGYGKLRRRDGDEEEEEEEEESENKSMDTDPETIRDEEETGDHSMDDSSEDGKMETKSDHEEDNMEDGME
Description: EMSA; affinity relative to SIP1CZF, estimated from expression levels. As to conditions: tags: N-terminal Myc6 (pCS3), COS1 cell extract; label: 32P. How it is done:
The Xbra-WT oligonucleotide covers the region from −344 to −294 of the Xbra2 promoter (16). The region between −412 to −352 of the α4-integrin promoter is present within the α4I-WT oligonucleotide (26). The Ecad-WT probe contains the region between −86 to −17 of the human Ecad promoter (2). Double-stranded oligonucleotides were labeled with [³²P]-γ-ATP and T4 polynucleotide kinase (New England Biolabs). Total cell extracts were prepared from COS1 cells (25) transfected with different pCS3 vectors allowing synthesis of full length SIP1, full length δEF1, and different mutant forms of SIP1 (25), or co-production of equal amounts of Myc-tagged SP1 and FLAG-tagged SIP1. GST-SIP1 fusion proteins were purified from E. coli extract using the GST purification module (Pharmacia), and tested in gel retardation. The DNA binding assay (20 μl) was performed at 25° C., with 1 μg of COS1 total cell protein, 1 μg of poly dI-dC, 10 pg of ³²P-labeled double-stranded oligonucleotide (approx. 10⁴ Cerenkov counts) in the δEF1 binding buffer described previously (30). For supershift experiments, the extracts were incubated with anti-Myc (Santa Cruz) or anti-FLAG (Kodak) antibodies. For competition, an excess of unlabeled double-stranded oligonucleotides was added together with the labeled probe. […]

In data set [1], E-cadherin promoter reporter yielded an activity (% decrease of promoter activity) of 80.

B1: Xbra-WT (dsDNA)
DNA 1: ATCCAGGCCACCTAAAATATAGAATGATAAAGTGACCAGGTGTCAGTTCT
DNA 2: AGAACTGACACCTGGTCACTTTATCATTCTATATTTTAGGTGGCCTGGAT
With B1, in data set [2], the binding signal was at least 50 fold.

The values are drawn from patent US20050272090, “Nucleic acid binding of multi-zinc finger transcription factors” (published 2005).
